Experiment [1] addresses bovine α-thrombin (bovine). Description: enzyme inhibition kinetics (chromogenic substrate); 1 nM bovine α-thrombin, 0-200 µM Tos-Gly-Pro-Arg-p-nitroanilide, 0-800 nM madanin; 37 °C, 50 mM Tris-HCl pH 8.0, 50 mM NaCl, 1 mg/ml bovine serum albumin; fitted to the competitive inhibition model.
The target of experiment [2] is bovine α-thrombin (bovine).

A word on the Ki: it is a dissociation constant, usually derived from enzyme kinetics or from competition with a known ligand. Substance “madanin-1 (mature, recombinant) (natural protein)” had a Ki in experiment [1] of 55.6 nM. Besides, the inhibition of thrombin amidolytic activity (%), 1 nM thrombin, 50 µM Tos-Gly-Pro-Arg-p-nitroanilide, 1 µM inhibitor, after 120 min in experiment [2] came to 43.8%.
The corresponding values for “madanin-2 (mature, recombinant) (natural protein)” are 31.6 nM and 47.2%.
With madanin-2 fragment 22-55 (peptide), the prolongation (fold) of thrombin time of human plasma, 10 µM fragment (18 s against 17 s); competition with fibrinogen for thrombin; species of the assay's thrombin not stated in the experiment with human α-thrombin (human) came out at 1.06 fold. In experiment [2], this substance gave an inhibition of thrombin amidolytic activity (%), 1 nM thrombin, 50 µM Tos-Gly-Pro-Arg-p-nitroanilide, 1 µM fragment, after 120 min of 6.11%.
The corresponding values for madanin-2 fragment 1-21 (peptide) are 1.06 fold and 5.83%.
On to madanin-1 fragment 55-60 (peptide), for which the prolongation (fold) of thrombin time of human plasma, 10 µM fragment (17 s against 17 s); competition with fibrinogen for thrombin; species of the assay's thrombin not stated with human α-thrombin (human) was determined as 1 fold.
madanin-1 fragment 1-21 (peptide) displayed a prolongation (fold) of thrombin time of human plasma, 10 µM fragment (17 s against 17 s); competition with fibrinogen for thrombin; species of the assay's thrombin not stated with human α-thrombin (human) of 1 fold. The substance also returned an inhibition of thrombin amidolytic activity (%), 1 nM thrombin, 50 µM Tos-Gly-Pro-Arg-p-nitroanilide, 1 µM fragment, after 120 min in experiment [2] of 4.6%.
With madanin-2 fragment 56-61 (peptide), the prolongation (fold) of thrombin time of human plasma, 10 µM fragment (17 s against 17 s); competition with fibrinogen for thrombin; species of the assay's thrombin not stated in the experiment with human α-thrombin (human) stood at 1 fold.
Substance madanin-1 fragment 22-54 (peptide) registered a prolongation (fold) of thrombin time of human plasma, 10 µM fragment (20 s against 17 s); competition with fibrinogen for thrombin; species of the assay's thrombin not stated in the experiment with human α-thrombin (human) of 1.18 fold. In experiment [2], the inhibition of thrombin amidolytic activity (%), 1 nM thrombin, 50 µM Tos-Gly-Pro-Arg-p-nitroanilide, 1 µM fragment, after 120 min was determined as 5.77%.
